Source: patent US20220064221A1, “BICYCLIC PEPTIDE LIGANDS SPECIFIC FOR INTEGRIN ALPHA-V-BETA-3” (BicycleTx Limited, priority 2019, published 2022)
Values belong to the molecule of their own block, whether it stands above or below them. Starred links: 1 amine or outer side, 2 acyl side, 3 side chain; linkers in the order of their positions; H or OH if unused. Positions of bridges follow the written chain, without caps; N, C: chain ends. Non-standard residues stand in square brackets, D forms with d. No end group written: not given here. *: point of attachment. FITC = O=C1OC2(c3ccc(O)cc3Oc3cc(O)ccc32)c2ccc(NC(=S)*)cc21; TATA = O=C(CC[*:1])N1CN(C(=O)CC[*:2])CN(C(=O)CC[*:3])C1; Ahx = NCCCCCC(=O)O; Fl = fluorescein; Sar = CNCC(=O)O

How the values were obtained:
integrin αvβ3 [1] = target: integrin αvβ3 (Homo sapiens, UniProt P05106+P06756); experiment: Human FP direct binding assay; details: Table 3; fluorescently modified peptides; Integrin aVb3
Chain of integrin αvβ3 (Homo sapiens, UniProt P05106+P06756) (P06756 31-889 limits assumed): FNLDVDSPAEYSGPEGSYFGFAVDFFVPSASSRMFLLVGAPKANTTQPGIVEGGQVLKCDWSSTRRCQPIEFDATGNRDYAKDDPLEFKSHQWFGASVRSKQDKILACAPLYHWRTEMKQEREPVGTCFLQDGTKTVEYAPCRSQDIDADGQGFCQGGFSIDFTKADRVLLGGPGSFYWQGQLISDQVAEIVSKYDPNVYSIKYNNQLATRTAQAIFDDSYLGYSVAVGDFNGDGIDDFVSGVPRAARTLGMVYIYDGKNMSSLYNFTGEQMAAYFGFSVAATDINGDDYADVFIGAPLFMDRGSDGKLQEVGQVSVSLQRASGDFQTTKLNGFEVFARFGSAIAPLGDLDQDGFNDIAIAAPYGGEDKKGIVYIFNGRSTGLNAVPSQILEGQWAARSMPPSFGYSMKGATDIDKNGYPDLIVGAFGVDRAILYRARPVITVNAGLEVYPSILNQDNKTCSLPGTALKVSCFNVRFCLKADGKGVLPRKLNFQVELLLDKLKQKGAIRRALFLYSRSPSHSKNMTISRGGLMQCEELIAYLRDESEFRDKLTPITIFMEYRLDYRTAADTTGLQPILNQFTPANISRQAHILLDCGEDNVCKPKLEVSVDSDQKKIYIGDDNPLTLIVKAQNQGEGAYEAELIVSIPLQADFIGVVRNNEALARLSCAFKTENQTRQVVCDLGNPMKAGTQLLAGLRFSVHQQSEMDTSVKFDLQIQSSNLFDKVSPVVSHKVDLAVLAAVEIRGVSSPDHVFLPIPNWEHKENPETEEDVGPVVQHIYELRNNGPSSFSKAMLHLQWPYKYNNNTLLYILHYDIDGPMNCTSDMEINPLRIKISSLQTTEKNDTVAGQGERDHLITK
Chain of integrin αvβ3 (Homo sapiens, UniProt P05106+P06756) (P06756 891-1048 partner limits assumed): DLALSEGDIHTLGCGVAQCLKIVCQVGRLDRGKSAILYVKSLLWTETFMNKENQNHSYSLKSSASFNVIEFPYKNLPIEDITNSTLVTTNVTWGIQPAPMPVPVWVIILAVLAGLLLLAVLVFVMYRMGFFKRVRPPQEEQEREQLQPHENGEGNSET
Chain of integrin αvβ3 (Homo sapiens, UniProt P05106+P06756) (P05106 27-788): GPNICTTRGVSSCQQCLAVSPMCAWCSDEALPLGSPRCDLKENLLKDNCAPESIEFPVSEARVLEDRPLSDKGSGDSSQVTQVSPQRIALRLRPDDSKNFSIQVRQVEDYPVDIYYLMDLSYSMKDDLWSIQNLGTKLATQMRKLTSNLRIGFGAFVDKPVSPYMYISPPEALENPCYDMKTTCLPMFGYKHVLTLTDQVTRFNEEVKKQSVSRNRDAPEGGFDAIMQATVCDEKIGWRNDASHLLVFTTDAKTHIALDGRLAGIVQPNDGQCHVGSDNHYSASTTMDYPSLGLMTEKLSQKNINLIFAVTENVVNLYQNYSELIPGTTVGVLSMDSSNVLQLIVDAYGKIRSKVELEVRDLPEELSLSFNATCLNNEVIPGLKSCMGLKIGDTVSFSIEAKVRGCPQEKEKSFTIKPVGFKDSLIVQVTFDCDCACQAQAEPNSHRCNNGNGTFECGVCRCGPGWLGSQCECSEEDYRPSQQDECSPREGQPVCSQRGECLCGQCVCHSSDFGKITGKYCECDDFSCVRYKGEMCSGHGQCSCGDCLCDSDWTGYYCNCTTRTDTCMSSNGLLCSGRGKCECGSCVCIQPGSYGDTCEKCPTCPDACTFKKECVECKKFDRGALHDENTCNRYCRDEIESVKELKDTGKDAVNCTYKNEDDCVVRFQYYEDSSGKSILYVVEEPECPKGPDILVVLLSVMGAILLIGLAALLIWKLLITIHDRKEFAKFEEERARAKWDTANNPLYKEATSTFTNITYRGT
Method: (§1) Affinity of selected fluorescently modified peptides of the invention for integrin αvβ3 (Kd) (and αvβ5 to test for selectivity) was determined using a human direct binding assay analogous to that described in Schottelius et al. (2009) Acc. Chem. Res. 42, 969-980.

integrin αvβ3 [2] = target: T1, integrin αvβ3 (human, UniProt P06756 31-992; P05106 27-718); experiment: Human FP Direct binding
T1 construct: also called Integrin aVb3
T1 sequence (P06756 31-992, chain 1 of 2): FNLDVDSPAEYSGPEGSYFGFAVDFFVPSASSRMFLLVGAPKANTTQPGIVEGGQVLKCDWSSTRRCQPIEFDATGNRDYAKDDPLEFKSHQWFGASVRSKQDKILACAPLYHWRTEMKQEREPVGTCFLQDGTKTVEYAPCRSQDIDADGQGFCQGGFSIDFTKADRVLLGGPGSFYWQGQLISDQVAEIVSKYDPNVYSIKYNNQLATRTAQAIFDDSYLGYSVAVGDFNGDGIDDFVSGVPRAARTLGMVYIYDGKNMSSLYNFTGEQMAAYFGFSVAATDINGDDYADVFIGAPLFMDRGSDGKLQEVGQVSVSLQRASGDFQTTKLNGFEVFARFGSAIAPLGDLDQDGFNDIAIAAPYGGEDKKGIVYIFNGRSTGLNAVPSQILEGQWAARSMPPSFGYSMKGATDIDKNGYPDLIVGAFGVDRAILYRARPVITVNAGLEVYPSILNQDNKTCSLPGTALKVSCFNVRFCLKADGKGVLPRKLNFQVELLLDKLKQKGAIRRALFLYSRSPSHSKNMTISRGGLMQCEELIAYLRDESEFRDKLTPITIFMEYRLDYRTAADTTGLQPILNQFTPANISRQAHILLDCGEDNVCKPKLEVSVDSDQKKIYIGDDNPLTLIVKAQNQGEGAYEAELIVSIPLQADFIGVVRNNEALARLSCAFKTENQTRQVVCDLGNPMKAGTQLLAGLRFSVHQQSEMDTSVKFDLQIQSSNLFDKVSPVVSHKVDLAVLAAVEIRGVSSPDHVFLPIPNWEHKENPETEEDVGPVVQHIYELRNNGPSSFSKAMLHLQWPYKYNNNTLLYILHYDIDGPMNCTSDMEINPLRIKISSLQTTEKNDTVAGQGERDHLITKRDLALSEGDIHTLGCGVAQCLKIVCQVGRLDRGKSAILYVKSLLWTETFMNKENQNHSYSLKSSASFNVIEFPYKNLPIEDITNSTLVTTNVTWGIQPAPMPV
T1 sequence (P05106 27-718, chain 2 of 2): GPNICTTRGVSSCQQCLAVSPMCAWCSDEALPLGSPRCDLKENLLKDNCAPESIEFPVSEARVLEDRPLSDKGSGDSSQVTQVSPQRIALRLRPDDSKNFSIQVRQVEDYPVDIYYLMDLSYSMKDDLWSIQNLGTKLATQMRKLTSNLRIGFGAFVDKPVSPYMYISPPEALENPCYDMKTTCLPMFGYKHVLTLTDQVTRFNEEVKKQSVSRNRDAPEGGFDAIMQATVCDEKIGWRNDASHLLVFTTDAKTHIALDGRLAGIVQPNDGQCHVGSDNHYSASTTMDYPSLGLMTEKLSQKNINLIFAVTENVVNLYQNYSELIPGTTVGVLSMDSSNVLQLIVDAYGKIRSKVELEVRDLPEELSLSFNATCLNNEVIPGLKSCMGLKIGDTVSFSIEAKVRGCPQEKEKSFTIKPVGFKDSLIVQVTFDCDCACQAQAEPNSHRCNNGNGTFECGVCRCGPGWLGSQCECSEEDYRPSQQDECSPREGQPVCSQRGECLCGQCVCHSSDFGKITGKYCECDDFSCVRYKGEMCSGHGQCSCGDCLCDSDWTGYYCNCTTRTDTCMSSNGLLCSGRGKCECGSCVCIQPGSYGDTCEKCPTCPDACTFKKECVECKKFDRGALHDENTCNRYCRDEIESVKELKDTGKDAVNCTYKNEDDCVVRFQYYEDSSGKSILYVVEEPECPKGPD
Method: as §1

Molecule: {FITC-Ahx}-GRGSSP [BCY7766]
Kd (integrin αvβ3 [1]): 1.15 nM

Kd (integrin αvβ3 [2]): 0.05 nM
B1: BCY7508 (peptide)
peptide: Ac-CPHIGRTDCPPCA[Sar][Sar][Sar][Sar][Sar][Sar]K(Fl)
modifications: linker 1-9-12 via TATA

Kd (integrin αvβ3 [2]): 1.15 nM
B2: BCY7766 (peptide)
peptide: {FITC-Ahx}-GRGSSP
notes: also called FITC-Ahx-GRGSSP
